This is an account of results in PMC2911661.

A word on the Kd: it is a measure of binding affinity in units of concentration.

This test addresses SH2 domain of SHC1 (human) (UniProt P29353). The test is described as follows: peptide or protein array.

Some results are limits rather than exact numbers.

Chain of UniProt P29353 (P29353 488-579): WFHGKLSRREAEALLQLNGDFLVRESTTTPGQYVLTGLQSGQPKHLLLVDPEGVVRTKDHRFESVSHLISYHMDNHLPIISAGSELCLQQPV

Turning to “singly phosphorylated Tarp D peptide (18 amino acids around the ENIYE motif)”, the Kd was < 200 nM.
